Results on 2 substances are retold here after publication PMC11232276.

The target of assay [1] is wildtype (WT) α-synuclein fibrils (human) (UniProt P37840). As to the kind of experiment: flow-induced dispersion analysis.
The target in assay [2] is α-synuclein oligomers (human). As to the kind of experiment: flow-induced dispersion analysis.
The target of assay [3] is wildtype (WT) α-synuclein fibrils (human) (UniProt P37840). Briefly: native gel or EMSA. (A gel shift assay detects complexes by their altered migration in electrophoresis.)
Assay [4] shares this target. As to the kind of experiment: SPR.

By Kd is commonly meant a measure of binding affinity in units of concentration. Read a low Kd as a tighter complex.

Consider “BRICHOS-Alexa488 (rh Bri2 BRICHOS R221E labelled with Alexa-488) (from UniProt Q9Y287 113-231) (domain or fragment)”, for which the Kd in assay [1] came to 2300 nM; in assay [2] it was 78.2 nM.

As to “recombinant human (rh) Bri2 BRICHOS R221E monomer (from UniProt Q9Y287 113-231) (domain or fragment)”, the percent of soluble, unbound BRICHOS in assay [3] amounted to 90.6%. Moreover, in assay [4], the apparent KD, strong binding of the two-phase model worked out at 22 nM and the apparent KD, weak binding of the two-phase model was determined as 350000 nM.
